In publication PMC5436826, “The PET and LIM1-2 domains of testin contribute to intramolecular and homodimeric interactions” (PLoS ONE, 2017):

Experiments:
[1] = target: T1, GST-FL (glutathione-S-transferase fused full length testin) (Homo sapiens (Human), UniProt Q9UGI8-1); assay: GST pull-down with western blot
T1 chain: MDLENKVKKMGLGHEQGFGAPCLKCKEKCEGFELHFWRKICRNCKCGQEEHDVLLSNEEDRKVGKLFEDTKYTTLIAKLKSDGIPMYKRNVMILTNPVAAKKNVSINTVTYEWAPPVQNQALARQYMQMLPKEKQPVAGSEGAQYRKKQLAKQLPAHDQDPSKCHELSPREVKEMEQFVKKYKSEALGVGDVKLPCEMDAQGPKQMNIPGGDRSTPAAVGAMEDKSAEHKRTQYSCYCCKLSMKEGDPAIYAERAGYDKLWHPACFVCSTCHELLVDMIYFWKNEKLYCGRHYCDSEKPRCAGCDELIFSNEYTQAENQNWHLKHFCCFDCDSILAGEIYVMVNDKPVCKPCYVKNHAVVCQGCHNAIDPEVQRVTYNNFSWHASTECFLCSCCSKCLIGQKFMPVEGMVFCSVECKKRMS

[2] = target: T2, untagged PET^52-233 of testin (amino acids 52-233) (human, UniProt Q9UGI8-1 52-233); assay: supernatans depletion assay; GST-LIM1-3 on glutathione-sepharose beads at 0.31-50 μM incubated with 2.5 μM PET^52-233 in buffer A, 1 hour at 4°C; unbound PET^52-233 quantified on Coomassie gels; fit 'one site saturation + nonspecific'; settings: both partners purified
T2 construct: pGEX-2TK; source: E. coli BL21(DE3) pLYSstar, purified on glutathione sepharose as GST fusion, GST removed with thrombin
T2 sequence (looked up): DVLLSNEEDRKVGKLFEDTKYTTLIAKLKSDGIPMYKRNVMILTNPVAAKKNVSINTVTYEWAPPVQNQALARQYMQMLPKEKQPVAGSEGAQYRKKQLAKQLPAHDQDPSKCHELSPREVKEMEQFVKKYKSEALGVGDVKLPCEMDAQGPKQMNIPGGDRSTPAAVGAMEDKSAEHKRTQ

[3] = target: the molecule itself; assay: SEC; untagged FL (1.5 mg or as specified) on calibrated Superdex 200 HR 10/30, buffer A, 0.8 ml/min; dimer and monomer fractions re-run; monomer-dimer equilibrium

B1: ena/VASP-like protein (Evl), soluble untagged (protein)
chain: MSEQSICQARASVMVYDDTSKKWVPIKPGQQGFSRINIYHNTASNTFRVVGVKLQDQQVVINYSIVKGLKYNQATPTFHQWRDARQVYGLNFASKEEATTFSNAMLFALNIMNSQEGGPSSQRQVQNGPSPDEMDIQRRQVMEQHQQQRQESLERRTSATGPILPPGHPSSAASAPVSCSGPPPPPPPPVPPPPTGATPPPPPPLPAGGAQGSSHDESSMSGLAAAIAGAKLRRVQRPEDASGGSSPSGTSKSDANRASSGGGGGGLMEEMNKLLAKRRKAASQSDKPAEKKEDESQMEDPSTSPSPGTRAASQPPNSSEAGRKPWERSNSVEKPVSSILSRTPSVAKSPEAKSPLQSQPHSRMKPAGSVNDMALDAFDLDRMKQEILEEVVRELHKVKEEIIDAIRQELSGISTT
**Q.** Does B1 bind [1]?
**A.** binds

B2: GST-LIM1-3 of testin (domain or fragment)
chain: YSCYCCKLSMKEGDPAIYAERAGYDKLWHPACFVCSTCHELLVDMIYFWKNEKLYCGRHYCDSEKPRCAGCDELIFSNEYTQAENQNWHLKHFCCFDCDSILAGEIYVMVNDKPVCKPCYVKNHAVVCQGCHNAIDPEVQRVTYNNFSWHASTECFLCSCCSKCLIGQKFMPVEGMVFCSVECKKRMS
modifications: zinc-bound LIM domains; exact start is only in Fig 1A, so limits are taken from the UniProt LIM1 start (234, adjacent to PET 52-233) to the C-terminus (421); GST omitted
**Q.** B2 was tested. Which Kd [2] did it give?
**A.** 180 nM

B3: untagged recombinant full length (FL) testin (natural protein, human, UniProt Q9UGI8-1 1-421, looked up)
chain: MDLENKVKKMGLGHEQGFGAPCLKCKEKCEGFELHFWRKICRNCKCGQEEHDVLLSNEEDRKVGKLFEDTKYTTLIAKLKSDGIPMYKRNVMILTNPVAAKKNVSINTVTYEWAPPVQNQALARQYMQMLPKEKQPVAGSEGAQYRKKQLAKQLPAHDQDPSKCHELSPREVKEMEQFVKKYKSEALGVGDVKLPCEMDAQGPKQMNIPGGDRSTPAAVGAMEDKSAEHKRTQYSCYCCKLSMKEGDPAIYAERAGYDKLWHPACFVCSTCHELLVDMIYFWKNEKLYCGRHYCDSEKPRCAGCDELIFSNEYTQAENQNWHLKHFCCFDCDSILAGEIYVMVNDKPVCKPCYVKNHAVVCQGCHNAIDPEVQRVTYNNFSWHASTECFLCSCCSKCLIGQKFMPVEGMVFCSVECKKRMS
notes: testin, human, full length protein (residues 1-421), isoform 1 NP_056456.1; From pGEX-2TK; thrombin site between GST and FL; By SEC it is in a monomer-dimer equilibrium; also called non-tagged recombinant FL; source: E. coli BL21(DE3) pLYSstar, purified on glutathione sepharose as GST-FL, GST removed with thrombin
**Q.** B3 was tested. Which “stoichiometry N” value [3] did it give?
**A.** 2
